In patent US20250034594A1, “RNA-GUIDED GENOME RECOMBINEERING AT KILOBASE SCALE” (THE BOARD OF TRUSTEES OF THE LELAND STANFORD JUNIOR …, priority 2021, published 2025):

What was measured:
Format in all cases: cell-based
gene editing with Cas9 = test: Screen of 322 new SSAP proteins, gene editing activity with Cas9 (Table 5); set-up: Cas9 with SSAP activity: scale not given here
Summary of the method: (§1)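 The 322 SSAP proteins were found in sequence data and then synthesized. Each was screened for gene editing activity when paired with Cas9 and with dCas9.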

gene editing with dCas9 = test: Screen of 322 new SSAP proteins, gene editing activity with dCas9 (Table 5); set-up: dCas9 with SSAP activity: scale not given here
Summary of the method: as §1

[1] = tested on: gene editing with Cas9 and dCas9; test: Screen of 322 new SSAP proteins, activity across all experiments (Cas9 and dCas9, Table 5); set-up: scale not given here
Summary of the method: as §1

Molecule	Cas9 with SSAP activity (gene editing with Cas9)	Cas9 with SSAP activity (normalized) (gene editing with Cas9)	dCas9 with SSAP activity (gene editing with dCas9)	dCas9 with SSAP activity (normalized) (gene editing with dCas9)	Activity across all experiments [1]
SSAP_299: SEQ ID NO: 468; Paenibacillus sp. JCM 10914 (protein, listed as Paenibacillus sp.) TMDYVTKIQDALDRELDAKHDALPSGFKKTRFSENCRAYVKDYKDLQKYDAEEVASVLFKGAVLGLDFLAKECHVITEGSALRFQTDYKGEMTLVKKYSVRPILDIYAKNVREGDDFREEISGGKPLIHFNPRAFNNSKITGSFAVALFTDGGMVYETMPAEEIESIREHYGKNPGSDTWEKSQGEMYKRTVLRRLCKTIEIDFDAEQSLAYEAGSSFEFDREQQPKKRSPFNPPEVEESEVLSNDGITETQ	−4.631	−0.809	−4.250	−0.686	−4.441
SSAP_14: SEQ ID NO: 183 (protein) TTALQTLTNKLAERFEMGDGSGLVETLKSSAFAGATVSDAQMIALLVIANQYQLNPWTKEIYAFPGGNGGLTPIVGVDGWVRIINREPQYDGMEFHFTDDYSACTCTIYRKDRSKPIVVTEFMGECKKSSPAWNSHPKRMLRHKAMIQCARLAFGFTGIYDQDEAERIAENEKPPKNITPQNNVVETTAVELISEEQLSQIRQLMQVTGTEEAKILAYIGVQALNQIPKSQAEAVIKKLNLTLDKQNAEKADNGESVGEEIPL	−0.331	−0.351	−4.263	−0.702	−2.297
SSAP_226: SEQ ID NO: 395; Companilactobacillus furfuricola (protein, listed as Companilactobacillus furfuricola) VNNLAKLPIQTLVKEPKIVEKFESVLGNKSAQFVTSLINVVNSNQSLKNVDQMSVVASAMVAASLDLPINQDLGYMWLVPYGGKAQPQMGYKGYIQLAQRTGQYKHLNAVAVYEDEFQSYNPLTEQLDYEPHFKDRDSSEKPVGYVGYFELTSGFEKTVYWTRKQIDDHRQSFSKMSGKSKPSGVWATNFDAMALKTVLRNLISKWGPMSVEMQKAYESDEHATTISANDIKDIEVQEQEPATDVSQLINGSATEVNVNDSTTNSKDSE	−1.843	−1.377	−4.191	−0.610	−3.017
SSAP_219: SEQ ID NO: 388; Streptomyces uncialis (protein, listed as Streptomyces uncialis) SQISTAIATRDNGPAAVVEQYRESLALVMPSHLQQRVGAWIRNTQGLLRRDSKLMEAAQNDVGQFVAVLMDAARLGLEPGTEHYYLVPRWNNKKRATEVTGVRGYQGEIELMYRAGAVSSVIVEVVHTQDQFRFRPGRDARPVHDIDWDLEDRGSLRLVYAYAVMKDGATSKVVVLNRQHIAAARAKSDSAAKDWSPWNTDEEAMWLKTAAHRLTKWVPTSAEYLREQIRAQVAVESEQRPEPLPVAPPPAPGTVDADPDDEGPIDGELVD	0.580	0.924	−4.163	−0.726	−1.792
SSAP_272: SEQ ID NO: 441; Clostridium cadaveris (protein, listed as Clostridium cadaveris) ATNSSLKNQLSKKENVTIGNTMQGLLNNPKMKKRFEEILDKKAPQYMSSILNLYNGDTSLQKCEPMSVLSSSMIAATMDLPVDKNLGYAWIVPYKNKAQFQMGYKGYIQLALRTGQYKHINAIEIHEGELVNWNPLTEELEIDFTKKESDKIIGYAGYFELLNGFKKSTYWTKTQIENHRKKFSKSDYGWNKDFDAMAIKTVIRNMLSKWGILSIEMQNAYTADENIIKDSFIDDSENVSANIEDLVEADYTVNQDSLESKEEFEGTPLE	0.254	0.626	0.863	0.407	0.558
SSAP_164: SEQ ID NO: 333; Clostridium fimetarium (protein, listed as Clostridium fimetarium) ETIDIKQELASQAQTDSKKEVKLTKAMSIAEMIKAMMPEIKRALPSMITPERFTRIALSALNNTPELQACTPMSFISALLNAAQLGLEINSPLGHAYLIPYKNKGVLECQFQIGYLGLIALAYRNELMQTIQAQCVYENDEFLYEYGLNPKLVHRPATSDRGEPVFFYGLFKMINSGFGFCVMSKQEMDEFARTYSKGLASSFSPWKTSYNEMAKKTVIKQALKYAPIKTDFQKALSTDESIKYAISEDMTEAVNEIVSQNTEVA	−2.221	−0.998	−4.310	−0.557	−3.266
SSAP_250: SEQ ID NO: 419; Streptococcus pseudoporcinus (protein, listed as Streptococcus pseudoporcinus) ANQLTVVNTLQSDAVKEKFEAVMGEKANGFVSSVLSVVTNNNLLAKADFNSVYTSAMKAAVLDLPVEPSLGMAYIVPYKGKAQFQIGYKGLIQLAQRSGKVTKLNSGKIYKGQFKSYNALSEELDIDDIYTPKEDEEVVGYFGYMKLSNGFEKITYWTKERVEKHGKKYSQSYDSKFSPWQTNFDAMAEKTVLKSILSTYAPLTIEMQNANDFDNGKNTGIEPLEVKDVTPENDNESLLSDLLEDEPSVDAETGEIMENTELDLDYGSINAK	−4.531	−1.341	−4.273	−1.117	−4.402
SSAP_313: SEQ ID NO: 482; Pedobacter nototheniae (protein, listed as Pedobacter nototheniae) STEQSQQQTAARVPAKFQEGTVDSILKRVSDFQNTGELVLPANYIPENAVRAAWLMLMETTDRNDKPAIEVCTKESIANAFLEMVTKGLSVVKKQCYFVVYGNKLSLEDSYIGKIAIAKREAGVKEVNAVTIYEGDIFKYENDIETGRKRILEHKQELKNINPDKIVGA	−0.432	−0.643	−4.259	−1.301	−2.345
SSAP_76: SEQ ID NO: 245 (protein) ANELGIFSVDNLNMTTIKQYLDGGGKASDAELVLLINLCKQNNMNPFMKEVYFIKYGNQPAQIVVSRDFYRKRAFQNPNFAGIEVGVIVLNKDGVLEHNEGTFKTHEQELVGAWARVHLKNTEIPVYVAVSYDEYVQMKDGHPNKMWTNKPCTMLGKVAESQALRMAFPAEFSGTYGEEELPEPEKEPREVNGVKEPDRAQIESFDKEDYAARKIEELKEKAQPQKEVVKETGEVIDEITAEDF	−0.308	−0.267	−4.256	−0.591	−2.282
SSAP_183: SEQ ID NO: 352; Clostridium sp. CAG: 277 (protein, listed as Clostridium sp.) DFKEELAAKAEVAATTKKSDGVKLTKNMSIVDMIKALEPEIKRALPSVLTPERFVRMALTAVNNTPALAQCTPMSFIAALMNAAQLGLEPNTPLGQAYLIPYKNKKKGVVECQFQIGYKGMIDLVYRNDNVQTIQAHIVRENDHFEYELGLESKLRHIPAMEGRGEMMYVYALFKLTNGGYGFEVLNKEAVIAHAERYSPSYDGFSPWKTDFESKGLELFLILDLSSKQSGK	−0.476	−0.351	−4.151	−0.615	−2.313
SSAP_109: SEQ ID NO: 278; Bacillus (multispecies) (protein, listed as Bacillus sp.) TQAEKLKNDIAKQEQKNEVAQDDKPKTILDVMMQHKESFEMALPKHLDADRLIRLAVTEFRKNPMLKECTPESLLGAVMQAAQVGLEPDALGSAYLVPYYNKNKNVKEVQLQIGYKGLIELVRRSGQVTSIVANEVYENDEFDFEYGINEKLYHKPTMDADRGKLKCFYAYARFKDGGHAFTVMSVEQINQIRDKFSKSQKNGKHFGPWADHYESMAKKTVIKQLVKYMPISVEIQNQITRDETVHSSFKEEPKPIYAFEESPDIIDAPIEN	−1.697	−0.475	−4.168	−0.640	−2.932
SSAP_254: SEQ ID NO: 423; Pediococcus pentosaceus (protein, listed as Pediococcus pentosaceus) MNDISKVPMKVLVQQDKVQRMLENTLKGKTRQFTTSLINVVNSNQSLADVDQMSVIKSAMVAASLDLPIDQNLGFMWLVPYKGMATPQIGYKGYIQLALRTGQYKKLNTIVVHEGEMKYWNPLTEDFEYDPKGKESDEVIGYLGYLRMINGFEKTVYWTKQNIEDHRMKFSKMSGKAKPSGVWASNYDAMALKTVMRNLLSKWGIMSIEMQQAVVQDEKAPETDVRDVTPTETNSIDSLLAPEPKGEPINDSNEATVPTNAE	−1.160	−0.694	−4.178	−0.675	−2.669
SSAP_107: SEQ ID NO: 276; Ammoniphilus oxalaticus (protein, listed as Ammoniphilus oxalaticus) STKATSNELKNQLANRQGNNAATNNNPANTIAAYLKRMAPEIEKALPAHMDADRLARIALTTIRTTPKLLECTIPSLMGAVMQSAQLGLEPGLIGHCYIIPYGKEATFIIGYKGMIDLARRSGNIESIYAHAVYKNDEFEYEYGLKPNLVHKPAMSDQGDFIGAYAVAHFKDGGYQFEFMPKEEIDKRRNRSAASKGGPWVTDYEEMAKKTVVRHMWKYLPISIEIQQAATQDEVVRKDITEDPMPVDVLDIPFEASDAEETSEEGEINFD	0.596	1.792	−4.159	−0.615	−1.782
